doi:10.1101/681668 (bioRxiv, 2019)
Substitutions are numbered along the chain they refer to.

Assays:
Assay in all cases: pull-down
MBP-ORC1 = biological target: T1, MBP-ORC1 (human, UniProt Q13415 1-861)
T1 sequence: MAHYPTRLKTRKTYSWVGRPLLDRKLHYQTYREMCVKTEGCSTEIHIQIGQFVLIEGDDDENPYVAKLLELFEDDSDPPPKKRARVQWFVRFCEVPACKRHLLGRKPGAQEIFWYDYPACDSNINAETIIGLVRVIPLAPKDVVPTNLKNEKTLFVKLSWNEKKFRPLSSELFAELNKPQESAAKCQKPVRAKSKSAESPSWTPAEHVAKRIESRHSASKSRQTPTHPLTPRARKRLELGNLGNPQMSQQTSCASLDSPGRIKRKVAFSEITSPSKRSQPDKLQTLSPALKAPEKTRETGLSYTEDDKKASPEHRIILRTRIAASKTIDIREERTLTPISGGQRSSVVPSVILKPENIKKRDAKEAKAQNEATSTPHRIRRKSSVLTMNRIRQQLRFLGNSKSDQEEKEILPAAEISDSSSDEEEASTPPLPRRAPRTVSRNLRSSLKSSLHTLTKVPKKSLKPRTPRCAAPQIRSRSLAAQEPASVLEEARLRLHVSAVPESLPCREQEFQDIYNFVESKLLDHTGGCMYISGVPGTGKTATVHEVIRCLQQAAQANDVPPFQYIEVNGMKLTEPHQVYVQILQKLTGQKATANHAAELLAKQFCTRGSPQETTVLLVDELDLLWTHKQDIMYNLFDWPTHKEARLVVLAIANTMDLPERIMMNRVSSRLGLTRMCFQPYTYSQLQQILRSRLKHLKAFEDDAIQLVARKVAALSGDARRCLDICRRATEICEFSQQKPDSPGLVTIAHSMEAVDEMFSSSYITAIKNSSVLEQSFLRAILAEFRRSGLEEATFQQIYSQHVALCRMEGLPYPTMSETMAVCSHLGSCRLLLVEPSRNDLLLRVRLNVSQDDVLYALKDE

MBP-ORC2 = biological target: T2, MBP-ORC2 (human, UniProt Q13416 1-577)
T2 sequence: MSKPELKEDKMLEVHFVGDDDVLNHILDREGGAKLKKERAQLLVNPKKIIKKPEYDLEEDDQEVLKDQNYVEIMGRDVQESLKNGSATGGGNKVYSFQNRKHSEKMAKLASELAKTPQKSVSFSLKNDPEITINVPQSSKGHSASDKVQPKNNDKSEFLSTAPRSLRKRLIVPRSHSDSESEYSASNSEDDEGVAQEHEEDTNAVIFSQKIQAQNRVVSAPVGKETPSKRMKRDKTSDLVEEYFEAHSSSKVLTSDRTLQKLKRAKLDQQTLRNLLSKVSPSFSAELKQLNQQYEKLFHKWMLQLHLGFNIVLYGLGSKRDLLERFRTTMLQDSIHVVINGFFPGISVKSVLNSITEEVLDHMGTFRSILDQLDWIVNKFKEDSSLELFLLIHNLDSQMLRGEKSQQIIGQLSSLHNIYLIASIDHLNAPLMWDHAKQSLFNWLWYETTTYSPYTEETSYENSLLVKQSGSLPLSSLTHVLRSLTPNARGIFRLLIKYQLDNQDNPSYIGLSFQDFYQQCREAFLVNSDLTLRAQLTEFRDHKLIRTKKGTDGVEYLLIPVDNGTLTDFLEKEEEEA

MBP-ORC1 A-A = biological target: T3, MBP-ORC1 A-A (human, UniProt Q13415 1-861, 235KRL237 to 235ARA237)
T3 sequence: T1 sequence with K235A, L237A

Measured: binding result

B1: GST-CDC6 (natural protein)
chain: MPQTRSQAQATISFPKRKLSRALNKAKNSSDAKLEPTNVQTVTCSPRVKALPLSPRKRLGDDNLCNTPHLPPCSPPKQGKKENGPPHSHTLKGRRLVFDNQLTIKSPSKRELAKVHQNKILSSVRKSQEITTNSEQRCPLKKESACVRLFKQEGTCYQQAKLVLNTAVPDRLPAREREMDVIRNFLREHICGKKAGSLYLSGAPGTGKTACLSRILQDLKKELKGFKTIMLNCMSLRTAQAVFPAIAQEICQEEVSRPAGKDMMRKLEKHMTAEKGPMIVLVLDEMDQLDSKGQDVLYTLFEWPWLSNSHLVLIGIANTLDLTDRILPRLQAREKCKPQLLNFPPYTRNQIVTILQDRLNQVSRDQVLDNAAVQFCARKVSAVSGDVRKALDVCRRAIEIVESDVKSQTILKPLSECKSPSEPLIPKRVGLIHISQVISEVDGNRMTLSQEGAQDSFPLQQKILVCSLMLLIRQLKIKEVTLGKLYEAYSKVCRKQQVAAVDQSECLSLSGLLEARGILGLKRNKETRLTKVFFKIEEKEIEHALKDKALIGNILATGLP
binds: all assays above
